Experimental data taken from patent US20060287503, “Retinoid X receptor-interacting polypeptides and related molecules and methods” (published 2006).

T1: RIP15 (Mus musculus, UniProt Q60644 SEQ:1-446)
T1 chain: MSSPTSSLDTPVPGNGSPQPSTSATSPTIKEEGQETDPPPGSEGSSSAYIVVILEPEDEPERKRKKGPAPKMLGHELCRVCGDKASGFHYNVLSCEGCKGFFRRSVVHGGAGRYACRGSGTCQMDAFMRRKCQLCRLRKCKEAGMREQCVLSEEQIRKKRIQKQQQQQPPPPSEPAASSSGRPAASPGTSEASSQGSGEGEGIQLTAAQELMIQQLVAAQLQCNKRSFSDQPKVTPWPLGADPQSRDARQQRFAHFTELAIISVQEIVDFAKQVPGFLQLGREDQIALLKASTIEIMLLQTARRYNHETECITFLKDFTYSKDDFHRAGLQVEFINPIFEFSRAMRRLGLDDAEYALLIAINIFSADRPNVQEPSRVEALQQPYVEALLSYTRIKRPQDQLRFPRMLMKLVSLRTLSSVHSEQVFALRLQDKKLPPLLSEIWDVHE


How the values were obtained:
[1] = target: T2, RIP14-1/RXRalpha heterodimer (Mus musculus / Homo sapiens, UniProt Q60641-2;P19793 Q60641-2:1-484,P19793:1-462); assay: EMSA; competition with 50-fold unlabeled betaRARE (specific) and AP1 (nonspecific) tested; settings: tags: human RXRalpha expressed in E. coli; label: 32P end label
Description: (§1) In panel A, RIP14-1 without (lane 2) or with RXR (lanes 3-5) was incubated with the hsp27 promoter (EcRE) end-labeled with [³²P]ATP. In panel B, RIP15 (lanes 2-5) and RIP14-1 (lanes 9-12) without (lanes 2 and 9) or with (lanes 3-5 and 10-12) RXR were incubated with βRARE end-labeled with [³²P]ATP. In both cases, a 50-fold molar excess of unlabeled specific (sp; EcRE, lane A4 and βRARE, lanes B4 and B11) or nonspecific (ns; AP1, lanes A5, B5, and B12) oligomers were added with the labeled probe. Incubations with probe alone are shown in lanes A1, B1, and B8. Cell lysates used for in vitro translation were also incubated with the probes without (lanes A6 and B6) or with (lanes A7 and B7) RXR. RIP14-2 and the RIP14-1 chimeras containing a four amino acid insertion in the D domain (RIP14C) were also incubated with βRARE and RXR as shown in lanes B13 and B14, respectively. Specific bands are indicated by arrows.
(§2) To identify DNA sequences recognized by each orphan, in vitro translated proteins were used for gel shift assays. Because of their strong sequence similarity to the ecdysone receptor, a well studied ecdysone response element (EcRE) from the Drosophila hsp27 promoter (Riddilough et al., EMBO J. 6:3729-3734, 1987) was tested for binding to both orphans, in the presence and absence of RXR. […]

[2] = target: RIP15/RXRalpha heterodimer (Mus musculus / Homo sapiens, UniProt Q60644;P19793 Q60644:1-446,P19793:1-462); assay: EMSA; with RXR; settings: tags: human RXRalpha expressed in E. coli; label: 32P end label
Description: (§3) The binding of the RIP14-2 isoform to this element was weaker than that of RIP14-1 when similar amounts of RIP14 proteins were used. […] Several other DNA elements were tested in the gel shift assay, including the retinoic acid response element from the promoter of the human RARβ2 isoform (βRARE) (de The et al., Nature 343:177-180, 1990). In the presence of RXR, the βRARE was bound by both the RIP14 isoforms and RIP15 (FIG. 8, panel B). Again, the binding of the RIP14-2/RXR heterodimer was weaker than the RIP14-1/RXR heterodimer when a similar amount of RIP14 proteins were used (FIG. 8, panel B, lanes 10 and 14).
(§4) RIP14 and RIP15 proteins were produced by in vitro translation (Promega TNT, Madison, Wis.) using expression vectors containing the RIP genes following a T7 promoter. To generate full length RIP14-2 constructs, fragments from RIP14-1 clone No. 15 containing regions from the middle of the E domain to the 3′ end replaced the corresponding regions of RIP14-2 Clones No. 3 or 12, respectively. Sequences were confirmed by DNA sequencing. Human RXRα protein was expressed in E. coli using a bacterial expression vector based on the bacteriophage T7 promoter (Carter et al., Mol. Cell. Biol. in press., 1994). […]

RIP15 = target: T1, RIP15; assay: EMSA; without RXR; settings: label: 32P end label
Description: as §3, §4

[3] = target: T2, RIP14-1/RXRalpha heterodimer; assay: EMSA; competition with 50-fold unlabeled EcRE (specific) and AP1 (nonspecific) tested; 40 mM KCl, 2.5 mM MgCl2, pH 8.0, room temp; settings: tags: human RXRalpha expressed in E. coli; label: 32P end label
Description: as §1, §2

T2 sequence (Q60641 other isoform, or with tags, fused parts or gaps, chain 1 of 2): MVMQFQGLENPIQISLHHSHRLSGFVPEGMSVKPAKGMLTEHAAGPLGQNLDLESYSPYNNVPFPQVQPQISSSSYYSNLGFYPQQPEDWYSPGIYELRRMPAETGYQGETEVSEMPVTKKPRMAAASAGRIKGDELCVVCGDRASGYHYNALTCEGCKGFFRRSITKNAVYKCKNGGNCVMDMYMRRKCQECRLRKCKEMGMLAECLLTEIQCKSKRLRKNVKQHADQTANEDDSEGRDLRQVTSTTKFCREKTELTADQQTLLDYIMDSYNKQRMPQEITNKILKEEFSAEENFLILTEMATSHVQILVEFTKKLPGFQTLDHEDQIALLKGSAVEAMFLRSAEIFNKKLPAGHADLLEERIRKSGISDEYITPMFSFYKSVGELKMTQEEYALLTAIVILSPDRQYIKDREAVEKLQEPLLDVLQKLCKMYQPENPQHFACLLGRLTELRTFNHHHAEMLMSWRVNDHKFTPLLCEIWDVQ
T2 sequence (P19793 whole entry, chain 2 of 2): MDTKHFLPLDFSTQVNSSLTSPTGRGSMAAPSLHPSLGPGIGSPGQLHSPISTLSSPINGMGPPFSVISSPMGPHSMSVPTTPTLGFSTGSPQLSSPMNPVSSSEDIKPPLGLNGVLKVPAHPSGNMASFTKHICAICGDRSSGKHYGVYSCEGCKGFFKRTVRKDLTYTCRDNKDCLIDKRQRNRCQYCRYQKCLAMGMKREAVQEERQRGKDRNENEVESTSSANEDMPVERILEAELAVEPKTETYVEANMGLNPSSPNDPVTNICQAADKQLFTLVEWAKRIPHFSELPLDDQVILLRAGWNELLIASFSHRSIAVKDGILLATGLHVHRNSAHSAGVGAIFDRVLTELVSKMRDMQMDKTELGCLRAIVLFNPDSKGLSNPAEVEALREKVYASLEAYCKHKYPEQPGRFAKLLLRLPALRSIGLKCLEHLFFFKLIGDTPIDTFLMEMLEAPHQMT
Chain of RIP15/RXRalpha heterodimer (P19793 whole entry, canonical isoform, one chain of several): as the sequence (P19793 whole entry, chain 2 of 2) above

Binder	binding result [1]	binding result [2]	binding result (RIP15)	binding result [3]
betaRARE (dsDNA) DNA 1: GATCCGGGTAGGGTTCACCGAAAGTTCACTCGA DNA 2: TCGAGTGAACTTTCGGTGAACCCTACCCGGATC	binds			
hsp27 EcRE (dsDNA) DNA 1: CTAGACAAGGGTTCAATGCACTTGTCCATCG DNA 2: CGATGGACAAGTGCATTGAACCCTTGTCTAG		no binding	no binding	binds
